In publication PMC5429843:

Legend:
[1] = target: His186 (UniProt position 186, ITVKQHTVTTT); test: NMR; conditions: 20 °C, not stated (36 mM sodium phosphate + 36 mM sodium citrate, no added salt stated), folded RaPrP90-231, 1 mM
[2] = target: His187 (UniProt position 187, ITIKQHTVTTT); test: NMR; conditions: 20 °C, not stated (36 mM sodium phosphate + 36 mM sodium citrate, no added salt stated), folded GHaPrP90-231, 1 mM

Substance	pKa [1]	pKa ([1]; oxidised disulfide)	pKa [2]	pKa ([2]; oxidised disulfide. Progressive loss of amide dispersion and peak inhomogeneity near pH 5.)
Major prion protein, C-terminal domain (RaPrP90-231) (Oryctolagus cuniculus (rabbit))	5.1	5.1 ± 0.1	–	–
Major prion protein, C-terminal domain (GHaPrP90-231) (Mesocricetus auratus (golden/Syrian hamster))	–	–	4.9 ± 0.2	4.9 ± 0.1
